Results taken from a protein production outcome set (Wang et al. 2014).

Experiment: label from the status in PepcDB records

Row | Sequence | protein production
1 | MLGLLRRLFDNNEREIARYYKQVVEPVNRLEAEVEKLPDLAAAYRELKEKHEKGASLDELLPMAFALTRESAKRYLGMRHFDVQLIGGAVLHEGKIAEMKTGEGKTLVATLAVALNALTGKGVHVVTVNDYLARRDAEWMGPVYRGLGLSVGVIQHASTPAERRKAYLADVTYVTNSELGFDYLRDNMAISPDQLVLRHDHPLHYAIIDEVDSILIDEARTPLIISGPAEKATDLYYKMAEIAKKLERGLPAEPGVRKEPTGDYTVEEKNRSVHLTLQGIAKAEKLLGIEGLFSPENMELAHMLIQAIRAKELYHRDRDYIVQDGQVIIVDEFTGRLMPGRRYGEGLHQAIEAKEGVRIERENQTLATITYQNFFRLYEKRAGMTGTAKTEEKEFQEIYGMDVVVVPTNRPVIRKDFPDVVYRTEKGKFYAVVEEIAEKYERGQPVLVGTISIEKSERLSQMLKEPRLYLPRLEMRLELFKKASQKQQGPEWERLRKLLERPAQLKDEDLAPFEGLIPPKGNLRTAWEGLKRAVHTLAVLRQGIPHQVLNAKHHAREAEIVAQAGRSKTVTIATNMAGRGTDIKLGGNPEYLAAALLEKEGFDRYEWKVELFIKKMVAGKEEEARALAQELGIREELLERIREIREECKQDEERVRALGGLFIIGTERHESRRIDNQLRGRAGRQGDPGGSRFYVSFDDDLMRLFASDRVIAMLDRMGFDDSEPIEHPMVTRSIERAQKRVEDRNFAIRKQLLQFDDVLSRQREVIYAQRRLILLGKDEEVKEAAIGMVEETVASLAENFLNPEVHPEDWDLEGLKATLLDTAPQLQDFPFAELRALKAEEAVERLVEAALKAYEAREAELSPPLMRAVERFVILNVVDNAWKEHLHNLDVLRQGIFLRGYGQKDPFQEYKIEATRLFNEMVAFIKSEVAKFLFRLKVEAEPVRPVREAPYVPVPEAKPEPSEVFGVERKRATPPPQPGLSRAERRRLMRQEKKRKK | not failed
2 | MNGYVYLVGAGPGDEGLITKKAIECLKRADIVLYDRLLNPFFLSYTKQTCELMYCGKMPKNHIMRQEMINAHLLQFAQEGKIVVRLKGGDPSIFGRVGEEAETLAAANIPYEIVPGITSSTAASSYAGIPLTHRNYSNSVTLLTGHAKGSLTDHGKYNSSHNSDTIAYYMGIKNLPTICKNLRQAGKKEDTPVAVIEWGTTGKQRVVTGTLSTIVSIVKNENISNPSMTIVGDVVSLRDQIAWKEHKPLHGKKVLFTSATNKTSVMKQKLQEAGAEIYQIPTFKKEEYTLTLEQIIEIFNVNRLVFCSAESVEILMQSCSKYKKDIRSLQAELQHMNVATQEKLMQYGLLSKEAKFSSDTTVYLGRNINRIAFIQEKIGAGSYMMTHKYTIDHRFDEVHSRMLSEFLWDSIVFEGRASIDTFLAEVKRLGFLDIVTLPFSYTDVPTLRYANKVGFHNIDHQLQETLMQKDMVRQ | failed
3 | PDLYNHAIVIGYGRVGSMLAQLLQSRHVPLLVIDDNSEHVLKAHAAGIPAIRGSAAADLVLAEAHPERAKIAVLAIPQPLEAGEILAKLRALNPELTLVARAQNDAEVKHLLGHGADATVVAEHEMAHSLAEMVLSSTNHPNSTRLQPAIA | failed
4 | GMQGFFFNTRREIFKDKRVREALFYAFDFEWANKNLFFSQYKRTTSFFSNSIYASPPLPSPEEKALLAPYEKSLDERVFKEPYVVPRTDGVDVLGYNLRENLKYAQKLLESTGFSYKNMRLVDKNNKPFSFTLLLNSPAFERLALAFAKNLRVLGIEMKIQRVDLSQYVNRIKSYDFDMIVGVIGQSSFPGNEQRFYFGSLSAKEKGTRNYAGISSKAVDDLIEKIINAKDYKEQLAAIQAMDRVLLWGFYVIPHFYLP | failed
5 | MRILLVEDDELIGELLVKSLTSQHYTVDFAKDGQEGWDFAELYTYDLILLDLILPKLDGISFCRQLRASGNQTPILLLTSQDTSITKVTGLDAGADDYVAKPFDFQELLARIRALLRRGGSALPPLLEWNNLRLDPSTCEVACDGKLLHLTPKEYGLLELFLRNSHRIFSCSALIDQLWSFEEPPTEDTVRSHIKGLRQKLKAAGVVEDPIDTVYGIGYRLKPVQPGREEELNTEKVVAAIANPVENEVRKVWEDVVEKIEQRVAVIEQASHKLLQNKVSEEILSKAKVEAHKLAGSLGMFGSDEGSQIAQEIESLLDNGKKLKASGGKHLGQVVEALHQELENLKSGYKTELSVVETKADDRPLVLVIDQDQELVRESRSQGSEAIAPGQLTDARVMIVDDDPQILTTLQTLLSAWGIKVYTLPHPQGFLAARLGNLAEIDTLTLVANRRKSTQELNHYLQWCHTHQQTLSFAVVKLDGLKQINYNYGHEIGDRVLSQLGELLRQMFHSQDVVGRWGGTEFILGMAGITKGEGVRRLGELLKTFRQIEFINTSNQSFHATLSAAVVEYPQDGDKLEVLYQAADIVLHQSKATGRNRVLSS | failed
6 | MLCIPATRDQTVSSHPAGTRQKKLFSQNDYLAPLPLPTGQQPVDSLNIIWRKNEVYIDIGCYSVGSAVMVIWPMMIMFISLAYGLNDIDLLWLGVIITGIPTLMLIHGLLRPTPPPVRFNRQRREVCVPRDNGEYWIVPWESVTAASTQCSSIGQAGRVTMGLLFIGFENPDAEASEDNKHFSMGFNCGGGETAMALWECMRSYMEIGPEVVPESRVGAMPYEKTQIGSIVTSLRKGDVFDVLHGLFFITILGTYLAEKLQNLKLSPPPDLEYPDIIEWSKSLPPEQWATPSPELLAALARQAATS | failed
7 | MDSRSLSVHDGAMQTLTVPDSGLAPLLPGQRLARGVCRHLRSHDFVSVVELVPAPGLRVDVMALGPKGEIWVVECKSSRADYQSDRKWQGYLDWCDRFFFAVDEAFPVDLLPEGTGLMLADGYDAEILRIGPEGRLAPARRKAVIQGFARHAALRLQGLRDPGAFPG | failed
8 | MEDGVTPPLLITEKDTTMIRVKEEVKKQLWLSAPLIGVSLLQYSLQVISVMFVGHLGSLPLSAASIATSFASVTGFTFLLGTASALETLCGQAYGAKLYGKLGIQMQRAMFVLLILSVPLSIIWANTEQILVLVHQDKSIASVAGSYAKYMIPSLFAYGLLQCINRFLQAQNNVFPVFVCSGITTCLHLLLCWLFVLKTGLGYRGAALAISVSYWFNVILLSCYVKFSPSCSHSWTGFSKEAFQELYDFSKIAFPSAVMVCLELWSFELLVLASGLLPNPVLETSVLSICLNTSLTIWQISVGLGGAASIRVSNELGAGNPQVAKLAVYVIVGIAVAEGIVVVTVLLSIRKILGHAFSSDPKIIAYAASMIPIVACGNFLDGLQCVLSGVARGCGWQKIGACVNLGSYYLVGVPLGLLLGFHFHIGGRGLWLGIVTALSVQVLCLSLVTIFTNWDKEAKKATNRVGSSDDKDGDVQ | failed
9 | SEPPKMNPVVEPLSWMLGTWLSDPPGAGTYPTLQPFQYLEEVHISHVGQPMLNFSFNSFHPDTRKPMHRECGFIRLKPDTNKVAFVSAQNTGVVEVEEGEVNGQELCIASHSIARISFAKEPHVEQITRKFRLNSEGKLEQTVSMATTTQPMTQHLHVTYKKVTP | not failed
10 | MKLAMKLRTRLFLSISALITVALLGLLLGLVSVMQMARTQESLIQHNFAILDLGLKLRQNLGDQLVLMTGATRNPPELEKIQRQFEELLEEASAQDTQEDVRNGLEGTWVDYRRFIDALKQFGTDPRGIRGNPQLSESFDSLRNGLLNVHRKALENISSAEINSRDRALWIAGLLGLVGLAVLCIGFVTAHGIARRFGAPIEALAKAADRIGEGDYEVTLPISSAAEMNLLTRRFGIMAEALRQHQATNVDELLAGQQRLQAVLDSIDDGLLMIDRQGHLEHLNPVAQRQLGWDESRLGQSLGEALSRPELDEQLHLVLRGGTLERAPEDLAIDIDGESRLLTYSMTPVSHTKGHILGAVMVLHDVTEQRAFERVRSEFVLRASHELRTPVTGMHMAFGLLQERLHFAPESREADLLNTVTEEMQRLMQLINDLLNFSRYQNGLQKLKLAPCSIETLLEEARARYEGQAQEQEIVLMLDIQEPMPRLHADQSQLERVLDNLLDNALRHTPPNGLIRLQARRHGERAIISVEDNGEGIAYGQQGRIFEPFVQVGRKKGGAGLGLALCKEIVQLHGGRMGVYSRPGQGTQFYMALLL | failed
11 | PLGVSAAGALDRASLRRANRLVGNASSAAAIESVNGGLTVEAVGDQVIAVTGAPTTLTIESPSWVGSDDDDGGARPGGKRTVPMAAPFALLDGELLTLGAPESGFRNYVAIRGGVDAPEVLGSRSADTMSGIGPAPLAIRQVLATGEQTASTAVGAPELQPDFPGAGVTVLDVVPGPRADWFDQEALDSLCNQEWLVTPQSNRVGMRLDGKPLERTREGELPSEGTMAGALQIPPAGLPVLFLADHPITGGYPVIGVVRDEHLDRAAQVPIGGRIRFRLVPDSADFTTTTTKTPEK | not failed
12 | MDRADLRIAVLMGTKDGAPFIDEQLQSLLAQSHPLIDLWISDDGSVDGTVPIIEAWKSRWTKGRVTLVQGPREGFAANFRSMILDRRIDADFYAFSDQDDVWEPDRLESAVQWMQAFGAEPPLMFCSRTATMTETGSLAGHSPLFRRPPSFRNALVQSIAGGNTILLNRAARDLLARASARTGFVSHDWWAYLVVTGAGGVVHYDPRPLVRYRQHAANLVGANVSWAARVSRLGRLFKGEFADWTDLNLAGLAVNRDLLTPDAATCLDLFASGRQGSLFQRLRTLLVSGVYRQTLAGTLGLYLAFVLGRILEHHHHHH | failed
13 | MPKPLRCITIAFTDLPNEYKIVLGYLTYHSGRLFNQALYSIKTKQAKVNTYDLYNKLKDNSLHLKNLQSRCAQIVLDELVRAFKNWFEFLHNPEKFKGQEVKPPKFRPKNKPHRTITYDQTGFKVVGTKIRLSLSKALRQWLKEKHGIELKYLWLDTGLELDERLIKNIQIVPKANAKEFELHIIYEKPQNGEKLLKQDKVMVLDPNSSNFFAIVIEGIPQPYIIDGNGLKSLLRKYLKKIASLQSRLEGAKKKGFLTHFLEERISRLWLKVKRLLKHYAHTISNLILELALKYGVRKIYIGDAARNKNKESKLSSVADQIWSLLPHGKVKEYLEYKAKEYGIEVEYISEAYTSGVDSSVEGAVNKETYTPEARVKRGLFRTRLLGFLNADVNACRNLLKKLGKFDLISGILRPIRLRVFFKLRESSSAIPLYGGIGRSRGGVNLPVVVRHSKEGVNPPEAPHL | failed
14 | MEMVKSRSKVAIIGAGFVGASAAFTMALRQTANELVLIDVFKEKAIGEAMDINHGLPFMGQMSLYAGDYSDVKDCDVIVVTAGANRKPGETRLDLAKKNVMIAKEVTQNIMKYYNHGVILVVSNPVDIITYMIQKWSGLPVGKVIGSGTVLDSIRFRYLLSEKLGVDVKNVHGYIIGEHGDSQLPLWSCTHIAGKNINEYIDDPKCNFTEEDKKKIAEDVKTAGATIIKNKGATYYGIAVSINTIVETLLKNQNTIRTVGTVINGMYGIEDVAISLPSIVNSEGVQEVLQFNLTPEEEEALRFSAEQVKKVLNEVKNL | not failed
15 | MEYTPFSLILDVGWISGLMIIGNIMRRKIPFFQTLLIPSSITAGIIGMILGPKVLGLIGWSDHLSTYTTVLIAIVFASMPYSMKFDRGVRTGMKTMWAYSTAMFVGQWGLFILLGLFLFQPVWGTDEWFGMMLPVGFVGGFGTAAAVGTALESSGAEAAMSLGFTSATVGTFAAIVGGIIFTTWGIKKGKTAAMPAQLPWDLRSGYIDKLSDRPSIGKASTNPSAIEPLALHTGIILLTVAVAYSINQWLGSMFPTVQIPLFAMSFVVGIVGMGIMRLLKKPEYLDRDTVNSVSGAATDYLIAFGIASIAPAAIADYWVPLVVLFVLGTIYCCFFFFWVAPRFFGEKWLERAIFGWGWATAAVATGIALLKIVDPKLKSGALNEYGVAYIGFAPFEIGMTIIAPIAVLAGFTMGLGWASLIVAIVIFGLAWGLKWLPERGHVRGEGKPQ | failed
16 | MEAFTFNTTELILLSATGVLLIIQLIYYLGLYNRIHTHNLAVGKDEVHFGRELPPLSVVICARNESENLRRNLPTILKQDYPDFEVIVINDGSTDESEDLLSALEEEYPNLYHSFTPDSARYISRKKLALTLGIKASKHDWLVFTEADCAPVSNQWLRRMARNFTSSTDIVLGYSGYERGKGWLHKRASFDSLFTSLRYLGFALAGKPYMGIGRNLAYRKELFFKVKGFSTHLNMQRGEDDLFINQVANENNTRVETSPDAVIRMQPVERYKDWKEEKVSYMATSRFYKGSQRWLLGLETGTRLLFYAACLVGIVFGILSFHWLVVGLSLLLWFVRYSVQAYVINKTAGEMGDNRSYYFTLPVFDIIRPLQTLKLKLYRLYRGKGDFMRR | failed
